Reference: patent US20140079713A1

Molecular target: PTCH1-GFP (mouse) (UniProt Q61115)
Assay: cell surface binding of BOC-Fc proteins to COS7 cells expressing PTCH1-GFP, anti-Fc HRP

UniProt Q61115, sequence (Q61115 whole entry): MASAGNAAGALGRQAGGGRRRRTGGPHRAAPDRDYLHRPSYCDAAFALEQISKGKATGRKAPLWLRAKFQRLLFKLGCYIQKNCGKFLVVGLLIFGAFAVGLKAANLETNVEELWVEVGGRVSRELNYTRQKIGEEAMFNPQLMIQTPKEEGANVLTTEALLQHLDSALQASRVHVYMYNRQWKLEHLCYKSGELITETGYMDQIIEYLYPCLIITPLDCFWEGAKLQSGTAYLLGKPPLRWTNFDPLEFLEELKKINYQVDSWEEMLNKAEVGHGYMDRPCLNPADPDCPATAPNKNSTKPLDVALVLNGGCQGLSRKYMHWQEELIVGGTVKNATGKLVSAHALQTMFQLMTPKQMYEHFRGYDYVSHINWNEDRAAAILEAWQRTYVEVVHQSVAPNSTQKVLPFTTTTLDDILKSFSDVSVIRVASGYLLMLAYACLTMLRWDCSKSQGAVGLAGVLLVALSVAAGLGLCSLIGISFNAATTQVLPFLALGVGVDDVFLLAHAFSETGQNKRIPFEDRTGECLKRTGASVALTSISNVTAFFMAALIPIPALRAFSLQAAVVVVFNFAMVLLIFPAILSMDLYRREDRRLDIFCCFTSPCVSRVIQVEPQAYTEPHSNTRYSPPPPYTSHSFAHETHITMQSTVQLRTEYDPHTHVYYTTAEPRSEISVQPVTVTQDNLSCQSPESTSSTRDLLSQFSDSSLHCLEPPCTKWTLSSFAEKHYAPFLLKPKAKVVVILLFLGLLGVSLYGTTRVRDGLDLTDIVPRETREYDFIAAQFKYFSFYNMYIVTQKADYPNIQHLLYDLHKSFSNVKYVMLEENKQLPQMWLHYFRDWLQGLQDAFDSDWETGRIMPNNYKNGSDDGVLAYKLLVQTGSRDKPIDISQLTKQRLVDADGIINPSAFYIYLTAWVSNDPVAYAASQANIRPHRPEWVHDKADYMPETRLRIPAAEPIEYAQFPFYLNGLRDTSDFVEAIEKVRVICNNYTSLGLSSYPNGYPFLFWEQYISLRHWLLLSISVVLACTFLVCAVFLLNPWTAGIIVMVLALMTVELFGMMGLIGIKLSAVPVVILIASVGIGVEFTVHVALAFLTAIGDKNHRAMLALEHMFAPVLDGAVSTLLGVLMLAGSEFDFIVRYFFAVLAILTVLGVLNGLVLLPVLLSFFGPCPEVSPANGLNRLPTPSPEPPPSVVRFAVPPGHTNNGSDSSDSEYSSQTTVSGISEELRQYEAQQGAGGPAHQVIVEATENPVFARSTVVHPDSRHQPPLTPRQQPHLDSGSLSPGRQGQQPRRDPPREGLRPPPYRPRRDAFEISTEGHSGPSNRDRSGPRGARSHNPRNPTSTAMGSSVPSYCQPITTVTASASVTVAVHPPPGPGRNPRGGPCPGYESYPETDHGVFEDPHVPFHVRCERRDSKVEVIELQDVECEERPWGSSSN

binding level relative to BOC ecto-Fc [%]	Substance
60	BOC-Fc construct containing the FNIIIa domain alone (Fc fusion)
60	BOC-Fc construct containing the FNIIIb domain alone (Fc fusion)
